Results taken from IntAct's records for PubMed 12600646.

Biological target: RNF216, Q9NWF9-3
Sequence (Q9NWF9 379-866): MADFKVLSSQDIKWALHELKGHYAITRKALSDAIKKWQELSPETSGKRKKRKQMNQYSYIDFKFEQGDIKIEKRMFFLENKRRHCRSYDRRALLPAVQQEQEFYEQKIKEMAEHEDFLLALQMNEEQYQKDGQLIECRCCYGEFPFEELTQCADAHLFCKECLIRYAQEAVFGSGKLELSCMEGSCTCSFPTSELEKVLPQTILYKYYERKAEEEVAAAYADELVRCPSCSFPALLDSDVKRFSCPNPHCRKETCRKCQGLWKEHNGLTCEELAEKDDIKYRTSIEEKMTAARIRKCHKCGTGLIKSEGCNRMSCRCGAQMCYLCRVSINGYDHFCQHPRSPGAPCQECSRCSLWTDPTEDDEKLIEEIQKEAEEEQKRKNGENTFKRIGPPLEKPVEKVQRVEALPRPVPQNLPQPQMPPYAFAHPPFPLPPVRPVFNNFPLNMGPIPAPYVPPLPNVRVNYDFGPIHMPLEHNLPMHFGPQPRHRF

With “Virion infectivity factor (Human immunodeficiency virus type 1 group M subtype B (isolate NY5) (HIV-1)), P12504 Q105A;L106A;I107A” the “effect of a mutation on the interaction” value was “disrupting interaction”.
